The target of the experiment is T. suis B ΔC26 (Trichuris suis BCL-2-like protein B, C-terminal truncation) (Trichuris suis). The experiment in a line: MST; Monolith NT.115; protein labelled with NHS RED, unlabelled synthetic peptide diluted in phosphate-buffered saline; 30 min incubation; 25 °C; 40% LED and 40% MST power; three independent experiments, single binding model.

B1: T. suis protein A BH3 peptide (peptide)
peptide: SVRAPIRLCDAMFLMCDLFERKFHDR
For orientation: Kd means the free concentration of one partner at which half of the binding sites on the other are occupied at equilibrium, for simple one-to-one binding. In turn, B1 registered a Kd of over 50 µM.

B2: T. suis protein B BH3 peptide (peptide)
peptide: PILPEVNKTALCMRAMGEVFEDRYKT
On to B2, for which the Kd is over 50 µM.

The values are drawn from article PMC7456325.
